Assay results: US8318918B2, “Chalcone 3-hydroxylase” (Technische Universitat Wien, priority 2009, dated 2012)

Experiments:
[1] = test system: recombinant CH3H from Cosmos sulphureus; assay: Enzyme assay and kinetic studies of recombinant CH3H with 14C-labelled substrates; assay type: biochemical; details: recombinant enzyme from the Cosmos sulphureus cDNA clone expressed in yeast
Excerpt: Heterologous Expression in Yeast For the heterologous expression, the proofreading amplicons were ligated into the yeast expression vector pYES2.1/V5-His-TOPO® (Invitrogen, UK) and transformed into E. coli TOP10F′ (Invitrogen, UK). The identification of the sense constructs took place with a PCR, for which a gene-specific forward and a plasmid-specific reverse primer was used. Sense constructs were isolated and the correct sequence confirmed by sequencing. Desired plasmids were then transformed into the yeast strain INVSc 1 (Invitrogen, UK). The heterologous expression was performed according to methods known in science, and the prepared proteins were shock-frozen in liquid nitrogen and stored at −80° C. […]
(§1) In order to determine the substrate specificity of the heterologously expressed F3′Hs, the following enzyme tests were performed: 20 μg of the recombinant wild-type CH3H or 50 μg of the hybrid proteins, respectively, were incubated with 0.25 nmol [14C]-marked chalcone or flavonoid substrates in the presence of 10 mM NADPH and 0.1 M KH2PO4—K2HPO4 (with 0.4% Na-ascorbate, pH: 7.5) buffer at 30° C. […] Detection and quantification of radioactivity took place using TLC analysis.
Kinetic data (apparent Michaelis constant (Km) and maximum speed of reaction (Vmax)) were determined using Lineweaver Burk plots.

[2] = F3′H activity (substrate acceptance) of heterologously expressed native, chimeric and mutated enzymes; assay type: biochemical, Cosmos sulphureus; details: recombinant enzymes expressed in yeast
Excerpt: (§2) Heterologous Expression in Yeast For the heterologous expression, the proofreading amplicons were ligated into the yeast expression vector pYES2.1/V5-His-TOPO® (Invitrogen, UK) and transformed into E. coli TOP10F′ (Invitrogen, UK). The identification of the sense constructs took place with a PCR, for which a gene-specific forward and a plasmid-specific reverse primer was used. Sense constructs were isolated and the correct sequence confirmed by sequencing. Desired plasmids were then transformed into the yeast strain INVSc 1 (Invitrogen, UK). The heterologous expression was performed according to methods known in science, and the prepared proteins were shock-frozen in liquid nitrogen and stored at −80° C. The determination of the amount of protein in the preparations was performed according to a modified Lowry method.
as §1

[3] = CH3H activity (hydroxylation of chalcones) of heterologously expressed native, chimeric and mutated enzymes; assay type: biochemical, Cosmos sulphureus; details: recombinant enzymes expressed in yeast
Excerpt: as §2, §1

catalytic CH3H activity with substrate [1]	F3′H activity [2]	CH3H activity (hydroxylation of chalcones) [3]	Molecule
high catalytic CH3H activities	–	–	O=C(/C=C/c1ccc(O)cc1)c1ccc(O)cc1O [Iso, isoliquiritigenin]
–	confirmed the F3′H activity	lacking CH3H activity	F3′H: recombinant F3′H from Cosmos sulphureus (Accession No.: FJ216426), tested as a comparison (protein, listed as Cosmos sulphureus) MTILPLLLYPSLTALLLYVLLNLRPRHPNRLPPGPSPWPIVGNLPHLGTTPHHSLAALAAKYGPLMHLRLGFVDVVVAASASVASQFLKTHDANFASRPPNSGAEHMAYNYQDLVFAPYGPRWRMLRKICSVHLFSGKALDDFRHVRQEEVAVLTRALAGAGKSPVKLGQLLSVCTTNALARVMLGRRVFGERDAKADEFKDMVVEMMVLAGEFNIGDFIPALDWLDLQGITKKMKKLHAQFDSFLNTILEEHKTGKGGSSSHRDLSSTLIALKDDADGEGGKLSDIEIKALLLNLFIAGTDTSSSTVEWAIAELIRCPQILRQAHEEMDNVVGRERLVTESDLGKLTFLQAIVKETFRLHPSTPLSLPRIASESCEIDGYFIPKGSTLLVNVWAIARDPKMWTDPLEFRPTRFLPGGEKPNVDVKGNDFEVIPFGAGRRICVGISLGLRMVQLLVATLVQTFDWELANGVLPEKLNMNEAFGLTLQRAEPLIVYPKPRLAPHVYESG
